From patent US20260139001A1

Biological target: SARS-CoV-2 Spike RBD, Wuhan (SARS-CoV-2) (UniProt P0DTC2)

Substance: Ribosomally constructed Wuhan-NS (VHH72 V104UAG construct translated with NBDxK-tRNACUA)
- normalized tube fluorescence: 0.58
